In the test the target is ACE2-ECD-sFc fusion protein (Homo sapiens). Nature of the test: ELISA, plate coated with ACE2 ECD-sFc. For orientation: An ELISA detects its analyte on a solid surface through an enzyme-linked reagent.

“S1-RBD-His protein (from UniProt P0DTC2 331-530) (ligand)” came in with an EC50 of 0.4 µg/mL.
Take “S1-RBD-His-HRP (from UniProt P0DTC2 331-530) (ligand)”: the EC50 came out at 0.19 µg/mL.

As a reminder, the EC50 is the concentration that produces a half-maximal response. A high value points to lower potency in that assay.

Values taken from patent US20230109393A1.
